US11312769B2, “Anti-TMEFF1 antibodies and antibody drug conjugates” (Bluefin BioMedicine, Inc., priority 2017, dated 2022)

T1: recombinant TMEFF1 (Homo sapiens, UniProt Q8IYR6)
T1 construct: generated to secrete the ECD from CHO cells to assist with biophysical evaluations; His tag (C); made in house; host or cells: CHO (ExpiCHO)
T1 sequence (Q8IYR6 40-330 limits assumed): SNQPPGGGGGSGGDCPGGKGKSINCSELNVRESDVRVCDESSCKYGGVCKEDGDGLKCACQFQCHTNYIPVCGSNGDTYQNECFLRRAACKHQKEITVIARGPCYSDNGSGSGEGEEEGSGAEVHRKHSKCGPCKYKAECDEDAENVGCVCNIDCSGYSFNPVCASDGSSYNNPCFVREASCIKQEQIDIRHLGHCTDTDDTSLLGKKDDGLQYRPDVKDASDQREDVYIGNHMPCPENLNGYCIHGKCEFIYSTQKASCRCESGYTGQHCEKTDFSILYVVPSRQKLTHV


The molecules below were run on hTMEFF1-ECD recombinant deletion mutants (assay: Binding domain determination with hTMEFF1-ECD deletion mutants (Octet)). Details: full length TMEFF1 ECD vs ΔFS1, ΔFS2, ΔFS1&FS2.
Design: species or system human; key: FS1—follistatin domain 1; FS2—follistatin domain 2
Description: TMEFF1 recombinant proteins expressing 3 different deletion mutants, AFS1 (AFollistatin Domain 1), AFS2 (AFollistatin Domain 2) or AFS1&FS2 were used to identify binding domains among different antibodes using an Octet Red instrument with Anti-Penta-His (HIS 1K) biosensors. Expression of the 3 deletion mutants was confirmed by WB analysis. 100 ngs of purified TMEFF1 ECD was run along with unpurified supernatant of transfected CHO cells with the different deletion mutants. HIS 1K biosensors were loaded by submerging the biosensors into wells containing 10 ug/ml of full length TMEFF1 or one of 3 different deletion mutants (AFS1, AFS2 or AFS1&FS2) for 60 seconds. Following the loading step, the biosensors were then dipped for 30 seconds in PBS before immersion for 30 seconds in 200 ul of unpurified recombinant antibodies for 30 seconds. The biosensors were then dipped briefly (30 seconds) in PBS to observe any dissociation. Samples were determined to show binding or no binding by comparing to a control well that contained no recombinant antibody. Differential binding to the deletion mutants allowed for determination of binding sites on TMEFF1 recombinant protein. For cases where the antibody bound all 3 recombinant proteins, the binding is outside of the deleted domains. For the case where binding is observed only on full length TMEFF1 and AFS2, the antibody is binding in the ΔFS1 domain.
26 of the identified antibodies were checked for epitope domain binding by Octet™ using the hTMEFF1-ECD recombinant deletion mutants (see Table 7, below).

| Binding region (epitope domain binding) | Molecule |
| --- | --- |
| Other | M1F1: human anti-TMEFF1 IgG1 antibody; VH SEQ ID NO: 9, VL SEQ ID NO: 13 (antibody, V domains shown) VH: QVQLQESGPGLVKPSETLSLTCAVSGYSISSGYFWGWIRQPPGKKLEWIGSIYHSGSTYYNPSLKSRVTMSVDTSKNQFSLKLSSVTAADTAVYYCAREGDCSGGICYWYFDLWGRGTLVTVSS VL: EIVMTQSPATLSVSPGERATLSCRASQSVSSNLAWYQQKPGQAPRLLIYGASTRATGIPARFSGSGSGTEVTLTISSLQSEDFAVYYCQQYNKWPLTFGGGTKVEIK |
| FS1 | 37G7: human anti-TMEFF1 IgG1 antibody; VH SEQ ID NO: 85, VL SEQ ID NO: 88 (antibody, V domains shown) VH: QVQLVESGGGVVQPGRSLRLSCAASGFTFTSYGMHWVRQAPGKGLEWVAVVWYEGSSKFYVDSVKGRFIISRDNSKNTLYLQMNSLRAEDTAVYYCARAYCGGDCYPFDYWGQGTLVTVSS VL: DIQMTQSPSSLSASVGDRVTITCRASQGISNYLAWYQQKPGKVPKLLIYAASTLQSGVPSRFSGSGSGTDFTLTISSLQPEDVATYYCQKYNSAPWTFGQGTKVEIK |
| FS1 | 35B1: human anti-TMEFF1 IgG1 antibody; VH SEQ ID NO: 66, VL SEQ ID NO: 70 (antibody, V domains shown) VH: QVQLVESGGGVVQPGRSLRLSCAASGFTFTTYGMHWVRQAPGKGLEWVAVVWFEGNSKFYIDSVKGRFIISRDNSKNTLFLQMNSLRAEDTAVYYCARANCGADCYPFDYWGQGTLVTVSS VL: DIQMTQSPSSLSASVGDRVTITCRASQGISNYLAWYQQKPGKVPKLLIYAASTLQSGVPSRFSGSGSGTDFSLTISSLRPEDVATYYCQKYNSAPWTFGQGTKVEIK |
| FS1 | 10C10: human anti-TMEFF1 IgG1 antibody; VH SEQ ID NO: 96, VL SEQ ID NO: 93 (antibody, V domains shown) VH: QVQLVESGGGVVQPGRSLRLSCATSGFTFSIYGMHWVRQAPGKGLEWVAIIWYDGNKKYYADSVKGRFTISRDNSKNTLYLQMNSLRAEDTAVYYCARDPYTSSLDYWGQGTLVTVSS VL: DIQLTQSPSFLSASVGDRVTITCRASQGISSYLAWYQQKPGKAPKLLIYAASTLQSGVPSRFSGSGSGTEFTLTISSLQPEDFATYYCQQLNSYPLTFGGGTKLEIK |
| FS1 | 18C2: human anti-TMEFF1 IgG1 antibody; VH SEQ ID NO: 89, VL SEQ ID NO: 93 (antibody, V domains shown) VH: QVQLVESGGGVVQPGRSLRLSCAASGFTFSIYGMHWVRQAPGMGLEWVAIIRYDGSNKYYADSVKGRFTISRDNSKNTLYLRMNSLRAEDTAVYYCARDPFTSSLDYWGQGTLVTVSS VL: DIQLTQSPSFLSASVGDRVTITCRASQGISSYLAWYQQKPGKAPKLLIYAASTLQSGVPSRFSGSGSGTEFTLTISSLQPEDFATYYCQQLNSYPLTFGGGTKLEIK |
| other | 3H9: human anti-TMEFF1 IgG1 antibody; VH SEQ ID NO: 114, VL SEQ ID NO: 117 (antibody, V domains shown) VH: EVQLVESGGGLVKPGGSLRLSCAASGFVFSYAWMNWVRQAPGKGLEWVGRIKSKTEGGTTDNAAPVKGRFTISREDSKNTLYLQLNSLKIEDTAVYYCTTGRIAAAGFDYWGQGTLVTVSS VL: DAVVTQESALTTSPGETVTLTCRSSTGTVTTSNYANWVQEKPDHLFTGLIAGTNNRAPGVPARFSGSLIGDKAALTITGAQTEDEAIYFCALWYSNHWVFGGGTKLTVLG |
| other | 11F9: human anti-TMEFF1 IgG1 antibody; VH SEQ ID NO: 71, VL SEQ ID NO: 75 (antibody, V domains shown) VH: EVQLVESGGGLVKPGGSLRLSCAASGFTFSYAWMSWVRQAPGKGLEWVGRIKSKTDGGTTDYAAPVKGRFTISRDDSKNTLYLQLNSLKIEDTAVYYCTTGRIAAAGFDYWAQGTLVTVSS VL: DAVVTQESALTTSPGETVTLTCRSSTGTVTTSNYANWVQEKPDHLFTGLIAGTNNRAPGVPARFSGSLIGDKAVLTITGAQTEDEAIYFCALWYSNHWVFGGGTKLTVLG |
| FS1 | M35: human anti-TMEFF1 IgG1 antibody; VH SEQ ID NO: 134, VL SEQ ID NO: 138 (antibody, V domains shown) VH: QVQLQESGPGLVKPSGTLSLTCAVSGGSISSSNWWSWVRQPPGKGLEWIGEIYHSGSTNYNPSLKSRVTISVDKSKNQFSLKLSSVTAADTAVYYCATMVRGRYYYYGMDVWGQGTTVTVSS VL: DIVMTQSPLSLPVTPGEPASISCRSSQSLLHSDGYNFLDWYLQKPGQSPQFLIYLGSNRASGVPDRFSGVGSGTDFTLQISRVEAEDFGVYYCMQALQAPWTFGQGTKLEIK |

The remaining lines, values behind:

| Molecule | Binding region (epitope domain binding) |
| --- | --- |
| M1H1: human anti-TMEFF1 IgG1 antibody; VH SEQ ID NO: 9, VL SEQ ID NO: 78 (antibody, V domains shown) VH: QVQLQESGPGLVKPSETLSLTCAVSGYSISSGYFWGWIRQPPGKKLEWIGSIYHSGSTYYNPSLKSRVTMSVDTSKNQFSLKLSSVTAADTAVYYCAREGDCSGGICYWYFDLWGRGTLVTVSS VL: DIQMTQSPSSLSASVGDRVTITCRASQGISNYLAWYQQKPGKVPKLLIYAASTLQSGVPSRFSGSGSGTDFTLTISSLQPEDFAVYYCQQYNKWPLTFGGGTKLEIK | other |
| M33F: human anti-TMEFF1 IgG1 antibody; VH SEQ ID NO: 9, VL SEQ ID NO: 141 (antibody, V domains shown) VH: QVQLQESGPGLVKPSETLSLTCAVSGYSISSGYFWGWIRQPPGKKLEWIGSIYHSGSTYYNPSLKSRVTMSVDTSKNQFSLKLSSVTAADTAVYYCAREGDCSGGICYWYFDLWGRGTLVTVSS VL: DIQMTQSPSSLSASVGDRVTITCRASQGISNYLAWYQQKPGKVPKLLIYAASTLQSGVPSRFSGSGSGTEVTLTISSLQSEDFAVYYCQQYNKWPLTFGGGTKLEIK | other |
| 29C4: human anti-TMEFF1 IgG1 antibody; VH SEQ ID NO: 118, VL SEQ ID NO: 122 (antibody, V domains shown) VH: QVQLVESGGGVVQPGRSLRLSCAASGFTFSNYGMHWVRQAPGKGLEWVAVIWYDGGPKFYADSVKGRFTISRDNSKNTLYLQMNSLRAEDTAVYYCARSYCGGDCYPFDYWGQGDLVTVSS VL: DIQMTQSPSSLSASVGDRVTITCRASQGISNYLAWYQQKPGKVPKLLIYAASTLQSGVPSRFSGSGSGTDFTLTISSLQPEDVATYYCQKYYSAPWTFGQGTKVEIK | FS1 |
| M17: human anti-TMEFF1 IgG1 antibody; VH SEQ ID NO: 79, VL SEQ ID NO: 82 (antibody, V domains shown) VH: QVQLVESGGGVVQPGRSLRLSCAASGFTFRSYGMHWVRQAPGKGLEWVALIWYDGGDQYYADSVKGRFTISRDSSKSTLYLQMNSLRAEDTAVYYCARAQCGDDCYPFDYWGQGTLVTVSS VL: DIQMTQSPSSLSASVGDRVTITCRASQGIYNYLAWYQQKPGKVPKLLIYAASTLQSGVPSRFSGSGSGTDFTLTISSLQPEDVATYYCQKYNSDPWTFGQGTKLEIK | FS1 |
| 19D9: human anti-TMEFF1 IgG1 antibody; VH SEQ ID NO: 99, VL SEQ ID NO: 101 (antibody, V domains shown) VH: QVQLVESGGGVVQPGRSLRLSCAASGFTFSIYGMHWVRQAPGKGLEWVANIWYDGSKKYYADSVKGRFTISRDNSKNTLYLQMNSLRAEDTSVYYCARDPYTSSLDYWGQGTLVTVSS VL: DIQLTQSPSFLSASVGDRVTITCRASQGISSYLAWYQQKPGKAPKLLIYTASTLQSGVPSRFSGSGSGTEFTLTISSLQPEDFATYYCQQLNSYPLTFGGGTKLEIK | FS1 |

What follows are molecules tested against T1, recombinant TMEFF1 (assay: Binding competition binning (Octet)). Details: seven antibodies, 3 bins.
Experimental: Binding competition among different antibodies was determined using a real-time, interferometry assay on an Octet Red™ instrument with Protein A-conjugated biosensors. To assess whether two antibodies competed for binding to a recombinant TMEFF1 protein, the assay was performed as follows. Protein A biosensors were first submerged into wells containing 10 ug/mL of individual monoclonal antibodies for 5 minutes. Following the capture step, the biosensors were dipped briefly (15 seconds) into buffer and then any unoccupied sites on the biosensor were saturated by submerging them for 5 minutes into wells containing 100 ug/mL of an irrelevant monoclonal antibody. The Octet biosensors were then dipped briefly (15 seconds) in buffer before immersion for 1 minute into wells containing recombinant TMEFF1. The biosensors were dipped briefly (15 seconds) in buffer before immersion for 1 minute into wells containing a second recombinant antibody.
For the control case where the second antibody was the same as the first, there was no increase in signal, because there was no additional binding to the recombinant target.
For the control case where buffer was used instead of the first antibody, no recombinant target bound the non-quenching antibody on the biosensor and no second antibody bound the biosensor.
Competition binning using Octet™ was done with seven antibodies and 3 separate bins were identified.

| Molecule | Competition binning (epitope bin) |
| --- | --- |
| M1F1: human anti-TMEFF1 IgG1 antibody; VH SEQ ID NO: 9, VL SEQ ID NO: 13 (antibody, V domains shown) VH: QVQLQESGPGLVKPSETLSLTCAVSGYSISSGYFWGWIRQPPGKKLEWIGSIYHSGSTYYNPSLKSRVTMSVDTSKNQFSLKLSSVTAADTAVYYCAREGDCSGGICYWYFDLWGRGTLVTVSS VL: EIVMTQSPATLSVSPGERATLSCRASQSVSSNLAWYQQKPGQAPRLLIYGASTRATGIPARFSGSGSGTEVTLTISSLQSEDFAVYYCQQYNKWPLTFGGGTKVEIK | bind a region different from FS1 or FS2 and compete with each other |
